One may read the IC50 as the point on the concentration scale where inhibition reaches its midpoint. Higher therefore signals weaker potency.

We go through five molecules from patent US20040054131A1 (CHIRON, published 2004).

B1: FGFR1c extracellular domain-IgG fusion protein (Fc fusion, human, UniProt P11362 22-377, looked up)
chain: RPSPTLPEQAQPWGAPVEVESFLVHPGDLLQLRCRLRDDVQSINWLRDGVQLAESNRTRITGEEVEVQDSVPADSGLYACVTSSPSGSDTTYFSVNVSDALPSSEDDDDDDDSSSEEKETDNTKPNRMPVAPYWTSPEKMEKKLHAVPAAKTVKFKCPSSGTPNPTLRWLKNGKEFKPDHRIGGYKVRYATWSIIMDSVVPSDKGNYTCIVENEYGSINHTYQLDVVERSPHRPILQAGLPANKTVALGSNVEFMCKVYSDPQPHIQWLKHIEVNGSKIGPDNLPYVQILKTAGVNTTDKEMEVLHLRNVSFEDAGEYTCLAGNSIGLSHHSAWLTVLEALEERPAVMTSPLYLEI
notes: range 1-377; also called FGFR-IgG; FGFR ECD; not shown: Fc region of human IgG1
B2: C19-jun fusion protein (designed binder)
chain: MAESGDDYCVLVFTDSAWTKICDWSHFRNGPGGGSGGGSGGGSGGGSGGGSRCGGRIARLEEKVKTLKAQNSELASTANMLREQVAQLKQKVMNHGGCGGSGGHHHHHH
notes: also called Clone 19-jun protein
B3: C19junΔhep (designed binder)
chain: B2 chain with R56Q, R59Q, K65Q, K68Q
notes: also called C19jun?hep; C19junahep

The target of assay [1] is T1, F12 phagemid (F12 clone peptide displayed on M13 p8) (bacteriophage M13).
T1 construct: Assayed as whole phagemid particles captured by anti-M13 antibody; The frame A-X3-C-X10-C-X3-(GGS)2GG-p8 is inferred from the 18mer two-cysteine pattern of F12; not shown: M13 p8 coat protein, peptide fused to its N-terminus
Nature of the assay: displacement of Europium-labeled FGFR-IgG by unlabeled FGFR-IgG from F12 phagemid captured on anti-M13 antibody (time-resolved fluorescence). How it is done: Nunc Maxisorp 96-well plates were coated with […] anti-M13 antibody in […] 50 mM Na₂CO₃ pH 9.6 and blocked using the conditions described in Example 2. Phagemid (˜10¹¹ cfu) were applied to wells in binding buffer for 1h and washed 6 times with PBS, 0.05% Tween 20, and 2 times with Delphia Wash Buffer (E&G Wallac). […] Wells were washed 8× in Delphia Wash Buffer, treated with 100 μL of Delphia Enhancer Solution and fluorescence measured. IC₅₀ values were determined from four-parameter fits to displacement plots.

Assay [2] has as its target FGF receptor (FGFR) on Swiss 3T3 cells. Nature of the assay: cell-based or functional assay.
Assay [3] deals with B1. Nature of the assay: BIAcore real-time kinetic analysis, immobilized FGFR1c ECD, no heparin; approximate apparent affinity. The protocol:
C19 peptide with an intrapeptide disulfide bond was synthesized, purified by HPLC, and characterized by mass spectroscopy. C19junΔhep protein was prepared by changing human c-jun residues Arg276, Arg279, Lys285, and Lys288 in the leucine zipper domain to glutamines. […] The extracellular ligand-binding domain of human FGFR Ic (residues 1-377) and human erythropoietin receptor (residues 1-250) were fused to the Fe region of human IgGI, expressed in baculovirus and purified by protein A affinity chromatography. […] PDGF receptor Fc fusion protein was from R&D Systems.
(In general: In SPR one partner is held on a chip, and binding of the other changes the refractive index at the surface.)

Assay [4] concerns the target B1. Nature of the assay: deletion mutant analysis; method not stated.

Where a chain is given by its changes, count along the chain named. Bridges are numbered along the chain shown (N, C = ends). Where no end group is shown, it is not given here.

In assay [1], B1 had an IC50 of about 12 nM. With B2, in assay [2], the “EC50 of mitogenesis (BrdU incorporation) in Swiss 3T3 cells with 15 U/ml heparin” value was found to be 0.24 nM. For the same molecule, in assay [3], the Kd was determined as 10 nM.

For B3, the Kd in assay [3] is 10 nM. Consider AESGDDYCVLVFTDSAWTKIC [C19 with truncation of the C-terminal 7 amino acids], for which the “fold loss of affinity against untruncated C19” value in assay [4] was about 15 fold. Take AESGDDYCVLVFTDSAWTKICDWSHFRN (disulfide 8-21 (inferred), also called C19 peptide; C19 clone) [C19 synthetic peptide]: the Kd in assay [3] turned out to be 400 nM.
